This passage reports abundance fitness results from the Human Domainome abundance scans (Beltran et al. 2025).

± gives the uncertainty stated by the source.

A short description of this series: abundance fitness (aPCA) (normalised: wild type 0, dead -1); higher = more abundant; growth selection in yeast, the domain comes from the species named. Conditions: Homo sapiens.
Turning to “E3 ubiquitin-protein ligase NEDD4 A851D, P46934”, the abundance fitness is -0.043 ± 0.04. The substance “E3 ubiquitin-protein ligase NEDD4 E869I, P46934” yielded an abundance fitness of -0.137 ± 0.071. “E3 ubiquitin-protein ligase NEDD4 F857Y, P46934”: the abundance fitness stood at 0.013 ± 0.048. For “E3 ubiquitin-protein ligase NEDD4 H850V, P46934” the value was -0.155 ± 0.055; for “E3 ubiquitin-protein ligase NEDD4 I859V, P46934”, -0.074 ± 0.065. For “E3 ubiquitin-protein ligase NEDD4 K844D, P46934” the value was -0.053 ± 0.031; for “E3 ubiquitin-protein ligase NEDD4 K864R, P46934”, -0.042 ± 0.053; for “E3 ubiquitin-protein ligase NEDD4 N853D, P46934”, -0.116 ± 0.071.

In the case of “E3 ubiquitin-protein ligase NEDD4 P852S, P46934”, the abundance fitness is -0.058 ± 0.055. “E3 ubiquitin-protein ligase NEDD4 R849K, P46934” displayed an abundance fitness of 0.052 ± 0.062. As to “E3 ubiquitin-protein ligase NEDD4 T863Q, P46934”, the abundance fitness is -0.511 ± 0.1. Take “E3 ubiquitin-protein ligase NEDD4 V848I, P46934”: the abundance fitness was -0.103 ± 0.075.
